Key:
Experiment in all cases: Kinase Profiling Assay
Assay type in all cases: biochemical
Conditions in all cases: for % activity: 100 μM
IRAK4(h) = biological target: T1, IRAK4(h) (Homo sapiens, UniProt Q9NWZ3)
T1 sequence (Q9NWZ3 1-460): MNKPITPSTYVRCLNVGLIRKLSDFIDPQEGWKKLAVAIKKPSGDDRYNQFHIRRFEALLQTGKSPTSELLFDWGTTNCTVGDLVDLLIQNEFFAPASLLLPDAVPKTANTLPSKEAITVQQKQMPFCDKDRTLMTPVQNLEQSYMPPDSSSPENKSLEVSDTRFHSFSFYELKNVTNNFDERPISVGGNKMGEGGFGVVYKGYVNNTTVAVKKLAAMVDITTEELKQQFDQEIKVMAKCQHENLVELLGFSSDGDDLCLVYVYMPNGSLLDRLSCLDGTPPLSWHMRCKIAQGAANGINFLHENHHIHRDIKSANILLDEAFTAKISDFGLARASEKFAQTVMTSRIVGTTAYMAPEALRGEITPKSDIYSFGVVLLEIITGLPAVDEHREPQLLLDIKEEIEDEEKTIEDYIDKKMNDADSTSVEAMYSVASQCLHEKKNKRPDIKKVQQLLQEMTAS

EphA4(h) = EphA4(h) (Homo sapiens, UniProt P54764)
Sequence of EphA4(h) (P54764 20-986): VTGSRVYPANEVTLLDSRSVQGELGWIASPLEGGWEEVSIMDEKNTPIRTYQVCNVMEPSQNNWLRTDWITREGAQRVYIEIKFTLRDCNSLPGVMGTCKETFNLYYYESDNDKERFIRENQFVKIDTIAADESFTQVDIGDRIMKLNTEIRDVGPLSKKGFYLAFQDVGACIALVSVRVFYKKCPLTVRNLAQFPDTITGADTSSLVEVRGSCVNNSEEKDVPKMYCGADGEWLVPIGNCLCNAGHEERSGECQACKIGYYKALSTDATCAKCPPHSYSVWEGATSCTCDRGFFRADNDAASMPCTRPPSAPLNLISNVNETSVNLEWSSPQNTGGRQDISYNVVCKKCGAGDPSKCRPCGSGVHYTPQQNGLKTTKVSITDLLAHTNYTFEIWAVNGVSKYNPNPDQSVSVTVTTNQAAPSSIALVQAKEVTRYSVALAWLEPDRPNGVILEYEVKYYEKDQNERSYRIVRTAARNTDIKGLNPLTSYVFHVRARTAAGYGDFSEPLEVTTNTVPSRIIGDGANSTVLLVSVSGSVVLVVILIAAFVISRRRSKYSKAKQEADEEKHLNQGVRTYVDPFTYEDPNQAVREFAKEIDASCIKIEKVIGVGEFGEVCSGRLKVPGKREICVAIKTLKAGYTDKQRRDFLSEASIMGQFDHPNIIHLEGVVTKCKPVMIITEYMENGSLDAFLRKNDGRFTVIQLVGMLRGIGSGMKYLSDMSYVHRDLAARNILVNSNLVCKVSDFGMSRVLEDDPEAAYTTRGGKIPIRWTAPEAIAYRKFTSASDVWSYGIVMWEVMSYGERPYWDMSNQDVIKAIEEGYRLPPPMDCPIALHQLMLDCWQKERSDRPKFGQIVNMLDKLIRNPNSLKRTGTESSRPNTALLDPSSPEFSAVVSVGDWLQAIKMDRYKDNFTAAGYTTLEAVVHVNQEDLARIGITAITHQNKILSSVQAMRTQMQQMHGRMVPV

ALK4(h) = biological target: T2, ALK4(h) (Homo sapiens, UniProt P36896)
T2 sequence (P36896 24-505): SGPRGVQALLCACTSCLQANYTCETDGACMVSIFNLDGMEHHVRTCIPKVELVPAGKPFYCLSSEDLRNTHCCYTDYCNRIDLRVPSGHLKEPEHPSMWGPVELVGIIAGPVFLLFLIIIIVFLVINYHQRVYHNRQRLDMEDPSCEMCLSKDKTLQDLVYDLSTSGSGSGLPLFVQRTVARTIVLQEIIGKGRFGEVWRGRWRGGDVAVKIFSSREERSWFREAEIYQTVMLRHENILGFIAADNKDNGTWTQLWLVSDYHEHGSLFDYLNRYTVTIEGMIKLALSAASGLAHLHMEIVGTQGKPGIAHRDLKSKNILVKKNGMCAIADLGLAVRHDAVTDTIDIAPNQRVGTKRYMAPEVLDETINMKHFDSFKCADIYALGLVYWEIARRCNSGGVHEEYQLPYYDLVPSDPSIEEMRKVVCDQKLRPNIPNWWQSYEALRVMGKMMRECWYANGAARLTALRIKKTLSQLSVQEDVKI

PKG1α(h) = biological target: T3, PKG1α(h) (Homo sapiens, UniProt Q13976)
T3 sequence (Q13976 1-671): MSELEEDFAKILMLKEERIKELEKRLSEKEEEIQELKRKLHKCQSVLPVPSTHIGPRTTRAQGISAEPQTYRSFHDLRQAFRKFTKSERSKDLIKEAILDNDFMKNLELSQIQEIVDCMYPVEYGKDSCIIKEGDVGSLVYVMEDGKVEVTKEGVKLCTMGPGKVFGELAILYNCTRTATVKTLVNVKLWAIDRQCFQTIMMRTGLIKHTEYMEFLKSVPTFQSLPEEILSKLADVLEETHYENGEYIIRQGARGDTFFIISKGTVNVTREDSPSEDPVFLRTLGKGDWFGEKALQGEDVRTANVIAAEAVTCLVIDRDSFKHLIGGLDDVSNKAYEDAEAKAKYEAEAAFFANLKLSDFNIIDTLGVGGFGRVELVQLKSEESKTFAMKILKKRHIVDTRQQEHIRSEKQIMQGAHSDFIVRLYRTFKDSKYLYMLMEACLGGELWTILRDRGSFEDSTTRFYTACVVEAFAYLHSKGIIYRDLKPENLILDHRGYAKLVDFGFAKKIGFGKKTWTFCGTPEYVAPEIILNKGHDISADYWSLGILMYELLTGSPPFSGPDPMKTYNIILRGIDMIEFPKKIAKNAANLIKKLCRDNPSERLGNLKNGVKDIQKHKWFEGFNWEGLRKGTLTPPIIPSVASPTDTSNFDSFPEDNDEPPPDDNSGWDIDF

TSSK1(h) = biological target: T4, TSSK1(h) (Homo sapiens, UniProt Q9BXA7)
T4 sequence (Q9BXA7 1-367): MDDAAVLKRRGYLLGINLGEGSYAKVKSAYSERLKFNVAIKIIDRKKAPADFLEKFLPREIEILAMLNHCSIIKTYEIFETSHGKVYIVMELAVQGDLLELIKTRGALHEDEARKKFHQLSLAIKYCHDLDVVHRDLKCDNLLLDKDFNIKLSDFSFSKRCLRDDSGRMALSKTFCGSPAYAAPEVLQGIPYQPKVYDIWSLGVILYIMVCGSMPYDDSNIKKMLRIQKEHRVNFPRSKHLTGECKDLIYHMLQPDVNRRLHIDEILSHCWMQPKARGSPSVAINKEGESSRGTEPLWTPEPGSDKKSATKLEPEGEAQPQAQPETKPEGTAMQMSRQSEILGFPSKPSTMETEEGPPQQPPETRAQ

PAK4(h) = PAK4(h) (Homo sapiens, UniProt O96013)
Sequence of PAK4(h) (O96013 whole entry): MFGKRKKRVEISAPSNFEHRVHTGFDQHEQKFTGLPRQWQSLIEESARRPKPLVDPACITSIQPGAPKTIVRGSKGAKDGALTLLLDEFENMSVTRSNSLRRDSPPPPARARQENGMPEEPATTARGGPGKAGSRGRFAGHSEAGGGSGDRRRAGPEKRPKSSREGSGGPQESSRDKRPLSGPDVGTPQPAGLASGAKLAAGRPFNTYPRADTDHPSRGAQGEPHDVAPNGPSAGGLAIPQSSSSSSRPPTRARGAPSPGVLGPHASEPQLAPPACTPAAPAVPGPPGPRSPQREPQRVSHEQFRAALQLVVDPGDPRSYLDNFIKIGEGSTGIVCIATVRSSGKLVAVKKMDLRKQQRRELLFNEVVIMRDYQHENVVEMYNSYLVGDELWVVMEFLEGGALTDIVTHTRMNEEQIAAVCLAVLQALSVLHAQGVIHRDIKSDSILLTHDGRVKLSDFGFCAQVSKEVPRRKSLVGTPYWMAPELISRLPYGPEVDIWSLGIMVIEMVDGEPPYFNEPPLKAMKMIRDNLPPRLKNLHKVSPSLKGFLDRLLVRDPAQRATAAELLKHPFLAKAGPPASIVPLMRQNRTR

Row | Substance | activity at 100 µM (IRAK4(h)) | activity at 100 µM (EphA4(h)) | activity at 100 µM (ALK4(h)) | activity at 100 µM (PKG1α(h)) | activity at 100 µM (TSSK1(h)) | activity at 100 µM (PAK4(h)) | % activity (IRAK4(h)) | % activity (EphA4(h)) | % activity (ALK4(h)) | % activity (PKG1α(h)) | % activity (TSSK1(h)) | % activity (PAK4(h))
1 | H-YARAAARQARAKALARQLGVAA-OH [MMI-0100] | 100% | 110% | 124% | 82% | 99% | 92% |  |  |  |  |  | 
2 | HRRIKAWLKKIKALARQLGVAA (Mammalian) [MMI-0500] |  |  |  |  |  |  | 3% | 48% | 81% | 25% | 46% | 86%
3 | YARAAARQARAKALNRQLGVA (Mammalian) [MMI-0200] |  |  |  |  |  |  | 110% | 127% | 152% | 70% | 98% | 98%

From patent US10087225B2, “Formulation of MK2 inhibitor peptides” (MOERAE MATRIX, INC., priority 2015, dated 2018)
